test: soluble on expression in E. coli; label from the status in PepcDB or PDB records

Soluble on expression in E. coli, not soluble:
MGSDKIHHHHHHMHMLLSERISLMIRGGYVGRNPNTGKLQQHLQNGYERLQKGDLDAKRFDGAESTAHSMAIIGCSGSGKTTSLRRILNTYPQVIFHPTLNRHQIVYLKIDCSHDGSLKELCLNFFRAIDKVIGSNYEKKYGMKRHGVETMLALMAQTANMFALGLLVIDEIQHLSRAKSGGSEKMLNFFVTMSNTIGIPVLFVGTPKARDIFDLDLRSSRRAAGLGSIFWNPISQYLPDQKSQNPEWIAFTNTLWKLQYLQKRDPILSDEIRDTWFDLSQGILDIVVKLFILAQLRALATGAEKITVELLKRVYEDELKLVHPMLSALRSGIPERIAQFSDLAVPDMDKKIIHLIQKISASTVESEEDRALKQLSNDDQRRIYLMLKDEFPSDSIIFAIQKIVELKPQISRQQLLASIIQAMETDNTTSQVTVTKKKNQRIGLKQWNELEDTDLRHIFSMNSTSPESIYTQLNHHGLILQMSDLLS
MGSDKIHHHHHHMHRSKAALVLAGGGVAGAAYEIGALCAIDQVLEHLSVNEFDVYVGTSAGALISACLANNMSPRTLISVLESSLLGIDQLEPHHLYQLNITDLLYRAAHLPGALVQAIQRWVREGGEVSLLDLIETVAVGLPTGLYDSRSLEQYLRAALEQPGRSNRFADLDHELMIVATDLDTGERAIFGLPPLDNVPISLAVCASAAIPIFYRPVRIGDHDYIDGGLRGTASLDVAIERGAELIVCINPMVPFDNRRHPPGAAISDQGIQRIGNQVFRTFIHAGLHYHIKQVRRRHPEVDIILIEPSRQDRTMFAENTMRFHTRMTIARHGFESVARQLCEHYPYYRAMLARHGITISDERIRQDLRNLQMAGDNPHLVRAALVTGGSLHTAPAGLASTLAELDRLLSRLEVTR
MGSDKIHHHHHHMHSSEIRYFLVVATTGSLSAASQHLFVAVSAISRQIQRLEERIGVPLFERHARGMVLNDAGRILENHVRKSMMDMDAAVAEIQGLKASRRALLRIGCTEGMAFDLLPTLFARFRQHDPDTTFALKVDSAMQVSQMIRNGEVDIALQFALAPEQGVNVELALPAPLMLLMSDEHPLAQQSIQLADLHPFPLALPESSTTLRQLFDLSCRMNGTFLEPTLCCNNFTTLYYYAMSTPGAVTACSFYSVMYKCLQEPMRLKPLNIKQLDQRSLQIQTLAGKAHAPQQQAFLDFMMAELRQGEAYYLSHMATDMV
MGSDKIHHHHHHMHTESIKTPTDNHAKGAVSSTVSPTTYTPDLPSDEEDYSTLINMLPPVAPSSTPTEDESTESDNMPTDALHDFSQSLETQYGIAPGVNIQQQRQQRAEANGLTFACVGRQPVDDIWQIYPARKHKLEAYSLALDIAESVGLERYVEHVVNTPVDYAYRMLPLENAVENEMVKMCYDLLMLLQTVDSTSYPSVSITLSFLLDAEKIDDVTLVKLFRLIRLVRYIRQGAHHDNV
MGSDKIHHHHHHMHYEHSRKGNHMIKINHLTITQNKDLRDLVSDLTMTIQDGEKVAIIGEEGNGKSTLLKILMGEALSDFTIKGNIQSDYQSLAYIPQKVPEDLKKKTLHDYFFLDSIDLDYSILYRLAEELHFDSNRFASDQEIGNLSGGEALKIQLIHELAKPFEILFLDEPSNDLDLETVDWLKGQIQKTRQTVIFISHDEDFLSETADTIVHLRLVKHRKEAETLVEHLDYDSYSEQRKANFAKQSQQAANNQRAYDKTMEKHRRVKQNVETALRATKDSTAGRLLAKKMKTVLSQEKRYEKAAQSMTQKPLEEEQIQLFFSDIQPLPASKVLVQLEKENLSIDDRVLVQKLQLTVRGQEKIGIIGPNGVGKSTLLAKLQRLLNDKREISLGFMPQDYHKKLQLDLSPIAYLSKTGEKEELQKIQSHLASLNFSYPEMQHQIRSLSGGQQGKLLLLDLVLRKPNFLLLDEPTRNFSPTSQPQIRKLFATYPGGLITVSHDRRFLKEVCSIIYRMTEHGLKLVNLEDL
MGSDKIHHHHHHMIDLHCHILPNIDDGAKSIDEAIALVALAAEQGVSRMVATPHIHLGIYDNNLQSINAAYHLLCDALALTNIDIQLRAAAEVRVSPEIMLFIEQQQLPFLGRYQQKDVLLLELPSSHIPPGTDKLISWLLAKNVLPMIAHPERNRELQSHPERITPFVRAGCLFQLTAASLIGDMGEAPKQLSEYFIKQKLYSIIGSDCHSLNRRPPKLLQAQHAVTALTDQEYAFALTTSMPGSISNVLFAESSD
MGSDKIHHHHHHMIDLKQYEFWFLVGSQYLYGLETLKKVEQQASKIVDSLNDDPIFPSKIVLKPVLKSSSEITEIFEKANADPKCAGVIVWMHTFSPSKMWIRGLSINKKPLLHLHTQYNREIPWDTIDMDYMNLNQSAHGDREHGFIHARMRLPRKVVVGHWEEKEVREKIAKWMRVACAIQDGRMGQIVRFGDNMREVASTEGDKVEAQIKLGWSINTWGVGELAERVKAVPEREVEELLKEYREKYIMPEDEYSLKAIREQAKIEIALREFLKEKNAVGFTTTFEDLHDLPQLPGLAVQRLMEEGYGFGAEGDWKAAGLVRAIKVMGTSLPGGTSFMEDYTYHLTPGNELVLGAHMLEVCPTIAKEKPRIEVHPLSIGGKADPARLVFDGQEGPAVNASIVDMGNRFRLVVNKVLSVPIERKMPKLPTARVLWKPLPDFKRATTAWILAGGSHHTAFSTAIDVEYLIDWAEALEIEYVVIDENLDLEDFKKELRWNELYWGLLKR
MGSDKIHHHHHHMIHLSPNDLPVGAPLPWSLLDGDGNLVLGSGNVIPDTRDVALVFRHGELCRLEADSGGDPQDDPLPRGPLGLQVGTLLHVKQPGDNSRAAASRLIGFVEQGLFMTWPQLGGRDLPVQAGDTLLLRGFSGRVIHSFTSTITAVCRSPFRYLVLSAPSQLDQMPVRKAARVPTRMAAYMTQSQESFQEADQDAFSAEMANGAARLVMVSDLSTGGAQIHAAGPAPVIGSRVQLRFRLRTASLDSEIVADAWVRAVTSDTADAEFPSFGISFDVLGEREMTLLQCFIYEQLLTSSGLGVHR
MGSDKIHHHHHHMIHTLQAQSNEITIPFAELDLLSHLTSEFEPKLFQQKIERLHQLDPGHPLPGIAKAYAFFHEQNFSAARRQLEQARSETGDHVRAHLLLGLMSEVENFQHEAERHFLDALSLFPEEPSVHRHLAVHYHEREFFGEAASHALQYLKKIGPGGEGTLMTIDMMQSMPGHDEHVLESLYSLLFEIPEHHHDMVFHSIAANNAEMRYELFHQALDGEPDEATVFRLDSMLSLMVEHSMWAAVYDQTKDRMCRTVFDTLCRDLTYRHAGIRSIPLYLTIRSRYFMRCLLHRS
MGSDKIHHHHHHMIILVGGEKGGSGKSCLAQNIAVFLTNEVQASVIMVDCDPQRTTSDWIQARNNNPKLPAINCVQLYGKIRNDLLSLEQHYDYVVVDCGGQDNLALRATMSVASYVLMPLRPKRRDLKTVSHMDDIVSTCLMINPKMKASFVITQCPSLPNQASRITEAKDVCRTYDINVLDAVNYCRNIYDDSEESGLSVFELEPQGKAADEMRSIACELLDITDAKQLIEQRNTASNVTPMRGNYGTSRSQEKRFVM
MGSDKIHHHHHHMIITPDTLKALFTGFKKNFQDGLKMAESQYKEIATVIPSSTASNTYGWLGQWPAFREWVGDRVFQDMKAHGYAITNKHFESSVKVNRNDIEDDNVGIYAPMMTEMGRASAVHPDELVFALLKNAHATLCYDGQNFFDTDHPVYEKVDGTGQASTVSNIFAGSEAAWYLLDTTRALKPLIYQERKAKQFTAMTADTDEGVFMRNEYRYGVDGRCNVGLGFWQMAAKSQEKLDAAGFEKAYNAMVSLKGDGGRPLAIRPNVLLVPPALENAAKELVEGDRLANGAYNPNKGKAKVIVSPWLL
MGSDKIHHHHHHMIKSISTGRTQQGYFSPVEKQMFGAALLADPDTSSPFSDVLSIAESGCSSSLLQQLTSVTKRFRHLKPEQYLLRQQDQFDSLFVVKKGALKSYRLTPEGEEIVTGFYMEGDVIGAGGLGNHKHFYSVVALEPSSLYEIPFAKLLQQSAMEPIVQQLMLKLLSQEMQADQSLRLIQLKQVKAAIASLILNIANRLTATQITLPMSRVDIANLLGVASETVCREFTRLQKQGLLSVNRKHIVINDLPQLQLAAGGDCY
MGSDKIHHHHHHMIKYIALASVVLLVGCSSTAKKPIADDPFYAPVYPDTVPTQVAATGSIYLDSQASSLYSDIRAHRVGDIITVTLKESTQASKSANNEIKKGSDLSVEPVYAGGKNISISGVPIDLGYSDSMNTKRESDADQSNSLDGSISANIIQVLSNGNLVIRGEKWISINNGDEFIRVTGMIRSEDINPDNTIDSTRVANARIQYSGTGTFADSQKVGWLSSFFMSDWWPF
MGSDKIHHHHHHMIMEELAKKIEEEILNHVREPQIPDREVNLLDFGARGDGRTDCSESFKRAIEELSKQGGGRLIVPEGVFLTGPIHLKSNIELHVKGTIKFIPDPERYLPVVLTRFEGIELYNYSPLVYALDCENVAITGSGVLDGSADNEHWWPWKGKKDFGWKEGLPNQQEDVKKLKEMAERGTPVEERVFGKGHYLRPSFVQFYRCRNVLVEGVKIINSPMWCVHPVLSENVIIRNIEISSTGPNNDGIDPESCKYMLIEKCRFDTGDDSVVIKSGRDADGRRIGVPSEYILVRDNLVISQASHGGLVIGSEMSGGVRNVVARNNVYMNVERALRLKTNSRRGGYMENIFFIDNVAVNVSEEVIRINLRYDNEEGEYLPVVRSVFVKNLKATGGKYAVRIEGLENDYVKDILISDTIIEGAKISVLLEFGQLGMENVIMNGSRFEKLYIEGKALLK
MGSDKIHHHHHHMINQERLVNEFMELVQVDSETKFEAEICKVLTKKFTDLGVEVFEDDTMAVTGHGAGNLICTLPATKDGVDTIYFTSHMDTVVPGNGIKPSIKDGYIVSDGTTILGADDKAGLASMFEAIRVLKEKNIPHGTIEFIITVGEESGLVGAKALDRERITAKYGYALDSDGKVGEIVVAAPTQAKVNAIIRGKTAHAGVAPEKGVSAITIAAKAIAKMPLGRIDSETTANIGRFEGGTQTNIVCDHVQIFAEARSLINEKMEAQVAKMKEAFETTAKEMGGHADVEVNVMYPGFKFADGDHVVEVAKRAAEKIGRTPSLHQSGGGSDANVIAGHGIPTVNLAVGYEEIHTTNEKIPVEELAKTAELVVAIIEEVAK
MGSDKIHHHHHHMINRKFINTVLAKRSTRSGLCQSATRTSRWLAVAIAILLANNSHADTSQTNVAAPAKTSACYLDGLDEQLQCGKITVLENPQLPDGKQIDIHFAILPAIKNTHPNEALLAIAGGPGQSAIENAAFFNRMLTKVRQQRDILLIDQRGTGKSNILSCDDDTTELLSMNDDDLDIIAMTEKCLGQIDADVSQYGSNTALTDFEAVREYLGYQKLHLYGISYGTRMAQLYMRHYPEALLTVTLDGVVPMQQSVVAIGDSIERGLNVLWRDCKSTPACQQQFPDLADEYNKVDQLLATAPISQQVRDPQTDELSEFLLTRSKFSGAIRMAMYMANIRALIPHAIHQAAQGNYQPILGIYTLTADSTGIAMGMHASVVCGEDIHRITDQMRKDAKESYISGNMLEGLEKTCQAWPIPQVDDNFSEPILSDIPTLLLSGELDPATPPNWGALAQEKLTKSKHFIAPYATHGVAGQSCGNDLVAQLVDQGSVKDINGECLQKDVRRSFYLNANTVEALPVIDTPTDIETTAPANTAADKE
MGSDKIHHHHHHMINYHPDQHLLSLHAKGELPLSMSIAISAHAELCPHCQQQLDQMTIALSEQQFESAVKTQSVDTNDNHQLDALLEQLLNSTLDTLEIEQASTIDTIEDNSVSIKGQHYPLPKVFRKQINASWQGIGKVSRLRLDTGEPQARASLLHIAANGEIPEHTHKGAELTLLLAGEFSDCYNTYKPGDFMLLDKEHQHSPKTLEGCLCYTIVDAPLYFTKGFSKLLNPIGDLLY
